Experimental findings from the supplement of paper PMC11780869 are described below.

In this series the test system is Bacillus subtilis. Kind of series: cleaved RNA product abundance (RNA/gDNA barcode ratio) relative to median wild-type variant (ratio to wild type); higher = more accumulation of the downstream cleavage product. The following applies: experiment (reporter, strain, medium): exp 8a: truncated aprE reporter, strain BJT201 with 2% xylose (RNase J1 expressed); cleavage site: glnRA (positions -5 to +31 mutated). In outline:
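Cleaved product abundance for each construct is its RNA-to-gDNA barcode ratio, scaled to the median construct carrying the unmutated site. Cleaved RNA was isolated on a gel, reverse transcribed and barcode-sequenced, with genomic DNA barcodes sequenced alongside and UMIs collapsed. The reporters were truncated aprE or tetM mRNAs with barcoded, mutagenized RNase Y cleavage-site windows integrated into the B. subtilis chromosome, and cultures grew in LB at 37°C from OD600 0.0003 to 0.3.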
For the sequence “CGACATGTCCCGCTTCTTTCATTAATCCGTTAGCAACTATTATGCTATATACATTTACCTTTTAAGAGGAGGAAT”, the “cleaved RNA product abundance” value came to 0.785.

For “CGACATGTCCCGCTTCTTTCATTAATCCGTTAGCAACTATTCTGCTATATACATTTACCTTTTAAGAGGAGGAAT”, the “cleaved RNA product abundance” value was determined as 0.838.

Take “CGACATGTCCCGCTTCTTTCATTAATCCGTTAGCAACTATTTAGCTATATACATTTACCTTTTAAGAGGAGGAAT”: the “cleaved RNA product abundance” value turned out to be 1.01.

Consider “CGACATGTCCCGCTTCTTTCATTAATCCGTTAGCAACTATTTTACTATATACATTTACCTTTTAAGAGGAGGAAT”, for which the “cleaved RNA product abundance” value was determined as 0.726.

In the case of “CGACATGTCCCGCTTCTTTCATTAATCCGTTAGCAACTATTTTGATATATACATTTACCTTTTAAGAGGAGGAAT”, the “cleaved RNA product abundance” value turned out to be 0.503.

“CGACATGTCCCGCTTCTTTCATTAATCCGTTAGCAACTATTTTGCAATATACATTTACCTTTTAAGAGGAGGAAT”: the “cleaved RNA product abundance” value is 0.531.

Regarding “CGACATGTCCCGCTTCTTTCATTAATCCGTTAGCAACTATTTTGCCATATACATTTACCTTTTAAGAGGAGGAAT”, the “cleaved RNA product abundance” value was determined as 0.121.

In the case of “CGACATGTCCCGCTTCTTTCATTAATCCGTTAGCAACTATTTTGCTATAAACATTTACCTTTTAAGAGGAGGAAT”, the “cleaved RNA product abundance” value was determined as 1.

As for “CGACATGTCCCGCTTCTTTCATTAATCCGTTAGCAACTATTTTGCTATATACAATTACCTTTTAAGAGGAGGAAT”, the “cleaved RNA product abundance” value was determined as 1.98.

Turning to “CGACATGTCCCGCTTCTTTCATTAATCCGTTAGCAACTATTTTGCTATATACACTTACCTTTTAAGAGGAGGAAT”, the “cleaved RNA product abundance” value was 1.29.

Regarding “CGACATGTCCCGCTTCTTTCATTAATCCGTTAGCAACTATTTTGCTATATACATCTACCTTTTAAGAGGAGGAAT”, the “cleaved RNA product abundance” value amounted to 0.944.

Take “CGACATGTCCCGCTTCTTTCATTAATCCGTTAGCAACTATTTTGCTATATACATGTACCTTTTAAGAGGAGGAAT”: the “cleaved RNA product abundance” value worked out at 1.19.

For the sequence “CGACATGTCCCGCTTCTTTCATTAATCCGTTAGCAACTATTTTGCTATATACATTTACATTTTAAGAGGAGGAAT”, the “cleaved RNA product abundance” value was 3.23.

On to “CGACATGTCCCGCTTCTTTCATTAATCCGTTAGCAACTATTTTGCTATATACATTTACCCTTTAAGAGGAGGAAT”, for which the “cleaved RNA product abundance” value is 0.937.

On to “CGACATGTCCCGCTTCTTTCATTAATCCGTTAGCAACTATTTTGCTATATACATTTACCTTTTAAGAGGAGGAAT”, for which the “cleaved RNA product abundance” value worked out at 1.34.

For the sequence “CGACATGTCCCGCTTCTTTCATTAATCCGTTAGCAACTATTTTGCTATATACATTTACTTTTTAAGAGGAGGAAT”, the “cleaved RNA product abundance” value stood at 1.55.

For “CGACATGTCCCGCTTCTTTCATTAATCCGTTAGCAACTATTTTGCTATATACATTTAGCTTTTAAGAGGAGGAAT”, the “cleaved RNA product abundance” value was found to be 1.16.

Consider “CGACATGTCCCGCTTCTTTCATTAATCCGTTAGCAACTATTTTGCTATATACGTTTACCTTTTAAGAGGAGGAAT”, for which the “cleaved RNA product abundance” value was 0.197.

Consider “CGACATGTCCCGCTTCTTTCATTAATCCGTTAGCAACTATTTTGCTATATATATTTACCTTTTAAGAGGAGGAAT”, for which the “cleaved RNA product abundance” value was 1.42.

Take “CGACATGTCCCGCTTCTTTCATTAATCCGTTAGCAACTATTTTGCTATCTACATTTACCTTTTAAGAGGAGGAAT”: the “cleaved RNA product abundance” value amounted to 0.108.

Take “CGACATGTCCCGCTTCTTTCATTAATCCGTTAGCAACTATTTTGCTTTATACATTTACCTTTTAAGAGGAGGAAT”: the “cleaved RNA product abundance” value turned out to be 0.459.

Consider “CGACATGTCCCGCTTCTTTCATTAATCCGTTAGCAACTATTTTGGTATATACATTTACCTTTTAAGAGGAGGAAT”, for which the “cleaved RNA product abundance” value turned out to be 0.273.

Take “CGACATGTCCCGCTTCTTTCATTAATCCGTTAGCAACTATTTTGTTATATACATTTACCTTTTAAGAGGAGGAAT”: the “cleaved RNA product abundance” value was 0.578.

For the sequence “CGACATGTCCCGCTTCTTTCATTAATCCGTTAGCAACTATTTTTCTATATACATTTACCTTTTAAGAGGAGGAAT”, the “cleaved RNA product abundance” value was determined as 0.613.

Regarding “CGACATGTCCCGCTTCTTTCATTAATCCGTTAGCAACTCATTTGCTATATACATTTACCTTTTAAGAGGAGGAAT”, the “cleaved RNA product abundance” value stood at 1.46.

As to “CGACATGTCCCGCTTCTTTCATTAATCCGTTAGCAACTCTTTTACTATATACATTTACCTTTTAAGAGGAGGAAT”, the “cleaved RNA product abundance” value was 0.579.

For the sequence “CGACATGTCCCGCTTCTTTCATTAATCCGTTAGCAACTCTTTTGATATATACATTTACCTTTTAAGAGGAGGAAT”, the “cleaved RNA product abundance” value is 0.51.

Regarding “CGACATGTCCCGCTTCTTTCATTAATCCGTTAGCAACTCTTTTGCTATAAACATTTACCTTTTAAGAGGAGGAAT”, the “cleaved RNA product abundance” value came to 1.3.

As for “CGACATGTCCCGCTTCTTTCATTAATCCGTTAGCAACTCTTTTGCTATATACATTTAACTTTTAAGAGGAGGAAT”, the “cleaved RNA product abundance” value turned out to be 1.36.

Turning to “CGACATGTCCCGCTTCTTTCATTAATCCGTTAGCAACTCTTTTGCTATATACATTTACCTTTTAAGAGGAGGAAT”, the “cleaved RNA product abundance” value was 1.15.

As for “CGACATGTCCCGCTTCTTTCATTAATCCGTTAGCAACTCTTTTTCTATATACATTTACCTTTTAAGAGGAGGAAT”, the “cleaved RNA product abundance” value stood at 0.642.

Turning to “CGACATGTCCCGCTTCTTTCATTAATCCGTTAGCAACTGAGTTGCTATATACATTTACCTTTTAAGAGGAGGAAT”, the “cleaved RNA product abundance” value was found to be 0.261.

“CGACATGTCCCGCTTCTTTCATTAATCCGTTAGCAACTGATTTACTATATACATTTACCTTTTAAGAGGAGGAAT”: the “cleaved RNA product abundance” value is 0.502.

Consider “CGACATGTCCCGCTTCTTTCATTAATCCGTTAGCAACTGATTTGATATATACATTTACCTTTTAAGAGGAGGAAT”, for which the “cleaved RNA product abundance” value was found to be 0.463.

Turning to “CGACATGTCCCGCTTCTTTCATTAATCCGTTAGCAACTGATTTGCAATATACATTTACCTTTTAAGAGGAGGAAT”, the “cleaved RNA product abundance” value came out at 0.49.

Take “CGACATGTCCCGCTTCTTTCATTAATCCGTTAGCAACTGATTTGCCATATACATTTACCTTTTAAGAGGAGGAAT”: the “cleaved RNA product abundance” value worked out at 0.226.

“CGACATGTCCCGCTTCTTTCATTAATCCGTTAGCAACTGATTTGCTAAATACATTTACCTTTTAAGAGGAGGAAT”: the “cleaved RNA product abundance” value worked out at 0.217.

Take “CGACATGTCCCGCTTCTTTCATTAATCCGTTAGCAACTGATTTGCTATAAACATTTACCTTTTAAGAGGAGGAAT”: the “cleaved RNA product abundance” value is 0.686.

For the sequence “CGACATGTCCCGCTTCTTTCATTAATCCGTTAGCAACTGATTTGCTATATACATATACCTTTTAAGAGGAGGAAT”, the “cleaved RNA product abundance” value is 1.

Regarding “CGACATGTCCCGCTTCTTTCATTAATCCGTTAGCAACTGATTTGCTATATACATTAACCTTTTAAGAGGAGGAAT”, the “cleaved RNA product abundance” value is 1.33.

As to “CGACATGTCCCGCTTCTTTCATTAATCCGTTAGCAACTGATTTGCTATATACATTTACCCTTTAAGAGGAGGAAT”, the “cleaved RNA product abundance” value worked out at 0.843.

“CGACATGTCCCGCTTCTTTCATTAATCCGTTAGCAACTGATTTGCTATATACATTTACCTTTTAAGAGGAGGAAT”: the “cleaved RNA product abundance” value turned out to be 0.96.

As for “CGACATGTCCCGCTTCTTTCATTAATCCGTTAGCAACTGATTTGCTATATACATTTACTTTTTAAGAGGAGGAAT”, the “cleaved RNA product abundance” value came to 1.06.

Regarding “CGACATGTCCCGCTTCTTTCATTAATCCGTTAGCAACTGATTTGCTATATACATTTATCTTTTAAGAGGAGGAAT”, the “cleaved RNA product abundance” value stood at 1.36.

In the case of “CGACATGTCCCGCTTCTTTCATTAATCCGTTAGCAACTGATTTGCTATATACATTTTCCTTTTAAGAGGAGGAAT”, the “cleaved RNA product abundance” value amounted to 0.328.

Take “CGACATGTCCCGCTTCTTTCATTAATCCGTTAGCAACTGATTTGCTATATAGATTTACCTTTTAAGAGGAGGAAT”: the “cleaved RNA product abundance” value worked out at 0.979.

For the sequence “CGACATGTCCCGCTTCTTTCATTAATCCGTTAGCAACTGATTTGCTTTATACATTTACCTTTTAAGAGGAGGAAT”, the “cleaved RNA product abundance” value was 0.282.

As to “CGACATGTCCCGCTTCTTTCATTAATCCGTTAGCAACTGATTTTCTATATACATTTACCTTTTAAGAGGAGGAAT”, the “cleaved RNA product abundance” value turned out to be 0.689.

Consider “CGACATGTCCCGCTTCTTTCATTAATCCGTTAGCAACTGCTTTGCTATATACATTAACCTTTTAAGAGGAGGAAT”, for which the “cleaved RNA product abundance” value was determined as 0.575.

With “CGACATGTCCCGCTTCTTTCATTAATCCGTTAGCAACTGCTTTGCTATATACATTTACCTTTTAAGAGGAGGAAT”, the “cleaved RNA product abundance” value was 0.307.

Regarding “CGACATGTCCCGCTTCTTTCATTAATCCGTTAGCAACTGCTTTGCTGTATACATTTACCTTTTAAGAGGAGGAAT”, the “cleaved RNA product abundance” value is 0.106.

“CGACATGTCCCGCTTCTTTCATTAATCCGTTAGCAACTGGTTTGATATATACATTTACCTTTTAAGAGGAGGAAT”: the “cleaved RNA product abundance” value was determined as 0.485.

Turning to “CGACATGTCCCGCTTCTTTCATTAATCCGTTAGCAACTGGTTTGCTATATACATTTACCTTTTAAGAGGAGGAAT”, the “cleaved RNA product abundance” value is 0.811.

For the sequence “CGACATGTCCCGCTTCTTTCATTAATCCGTTAGCAACTGGTTTGCTATATACATTTACTTTTTAAGAGGAGGAAT”, the “cleaved RNA product abundance” value was 0.918.

For the sequence “CGACATGTCCCGCTTCTTTCATTAATCCGTTAGCAACTGGTTTGCTGTATACATTTACCTTTTAAGAGGAGGAAT”, the “cleaved RNA product abundance” value was 0.0825.

In the case of “CGACATGTCCCGCTTCTTTCATTAATCCGTTAGCAACTGTAATGCTATATACATTTACCTTTTAAGAGGAGGAAT”, the “cleaved RNA product abundance” value turned out to be 1.06.

In the case of “CGACATGTCCCGCTTCTTTCATTAATCCGTTAGCAACTGTACTGCTATATACATTTACCTTTTAAGAGGAGGAAT”, the “cleaved RNA product abundance” value amounted to 0.328.

Regarding “CGACATGTCCCGCTTCTTTCATTAATCCGTTAGCAACTGTATTACTATATACATTTACCTTTTAAGAGGAGGAAT”, the “cleaved RNA product abundance” value stood at 0.835.

Regarding “CGACATGTCCCGCTTCTTTCATTAATCCGTTAGCAACTGTATTCCTATATACATTTACCTTTTAAGAGGAGGAAT”, the “cleaved RNA product abundance” value amounted to 0.45.

As for “CGACATGTCCCGCTTCTTTCATTAATCCGTTAGCAACTGTATTGATATATACATTTACCTTTTAAGAGGAGGAAT”, the “cleaved RNA product abundance” value worked out at 0.658.

In the case of “CGACATGTCCCGCTTCTTTCATTAATCCGTTAGCAACTGTATTGCAATATACATTTACCTTTTAAGAGGAGGAAT”, the “cleaved RNA product abundance” value came out at 0.678.
